From the supplement of paper PMC9170038

System: MS2 coat protein
Experiment: apparent KD of MS2 coat protein; designed switch direction (-1 OFF switch, 1 ON switch): -1; higher = weaker reporter binding
Method in brief: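 The apparent KD reported per design is the median over clusters of curve fits to normalised cluster fluorescence. The RNA switches were transcribed on Illumina chips by stalled E. coli RNA polymerase. SNAP-549-labelled MS2 coat protein was titrated from 0.7 or 1.5 nM, doubling up to 3 µM, in Tris-HCl pH 7.5 buffer containing KCl, MgCl2, BSA, DTT, tRNA and Tween-20, with no input, 200 uM small-molecule ligand, or an oligonucleotide input.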

[1] = input ligand: microRNA oligo, concentration not stated
[2] = Eterna round: R95, input ligand: microRNA oligo, concentration not stated
[3] = Eterna round: R95, input ligand: FMN 200 uM
[4] = Eterna round: R95, input ligand: none

Sequence | apparent KD of MS2 coat protein (input ligand: FMN 200 uM) [nM] | apparent KD of MS2 coat protein (input ligand: none) [nM] | apparent KD of MS2 coat protein [2] [nM] | further results
UCAAUUAUGACAGGAUAUAGUUUUUGUUUUUCUCUAGAAGGGUCUAUGCACAUGAGGAUCACCCAUGUUCUUUUUAUUUGCAUU [JR_ExcNG1_Sub016] (Eterna round: R96, puzzle: Exclusion NG 1) | 47.5 | 70.9 | – | apparent KD of MS2 coat protein [1]: 46.1 nM
UCACAGUUAGGAUAUGCGAGUUUGGUGUGCAUCCUAGACAUACAUGAGGAUCACCCAUGUAGAAGGAAUAGUGG [Eternabot (L2) Solution 80] (Eterna round: R97, puzzle: Exclusion 2) | 34.5 | 27.1 | – | –
UCACCGCAAGGAUAUACUUGCGGUGAUGCUCGAAAUCUUCUACUUGAGGAUCACCCAAGUAGAAGGUGCGGUGA [jl-ex2.4.67 ViennaUCT mod] (Eterna round: R97, puzzle: Exclusion 2) | 13 | 12.1 | – | –
UCACGGGACUGAGGAUAUACAUCAACAAUGGUUGUAGAAGGCAGAAGGUUGAAUCAUAUACAAAACAUGAGGAUCACCCAUGUA [JR_ExcNG1_Sub032] (Eterna round: R96, puzzle: Exclusion NG 1) | 23 | 26.2 | – | apparent KD of MS2 coat protein [1]: 23.8 nM
UCACGGGACUGAGGAUAUACAUGAACUAUUUUUGUAGAAGGCAGAAUGUUAGAUUAUACACUAAACAUGAGGAUCACCCAUGUU [JR_ExcNG1_Sub024] (Eterna round: R96, puzzle: Exclusion NG 1) | – | – | – | apparent KD of MS2 coat protein [1]: 15.1 nM
UCACGGGACUGAGGAUAUACAUGAAUUAUUUUUGUAGAAGGCAGAAUGUUAGAUUAUACACUAUACAUGAGGAUCACCCAUGUU [JR_ExcNG1_Sub023] (Eterna round: R96, puzzle: Exclusion NG 1) | 16.1 | 19.7 | – | apparent KD of MS2 coat protein [1]: 20.5 nM
UCAGGUGCAGGAUAUACAUGAGGAUCACCCAUGUAGAUCAACCAGCGAUAGCUGGAAUGUAGAAGGGCACCUGA [E3/5-D2] (Eterna round: R97, puzzle: Exclusion 3) | 100 | 19.7 | – | –
UCAGGUGCAGGAUAUACAUGAGGAUCACCCAUGUGGUCACGUGACGAUAGUCACGAAUGUAGAAGGGCACCUGA [E3/3-D1] (Eterna round: R97, puzzle: Exclusion 3) | 60.1 | 958 | – | –
UCAGUGUUAGGAUAUCGAGCAAGUUGAAUAUUUGUCUGUAUCGAGAAGGGACAUGAGGAUCACCCAUGUGAGGC [Eternabot (L1) Solution 65] (Eterna round: R97, puzzle: Exclusion 4) | 245 | 69.9 | – | –
UCAGUUAUGCGAGGAUAUCGACCUUUCCUCUUAACAUGAGGAUCACCCAUGUGCUAAUCCUUCAACGAGAAGGCGCUCAAACUC [JR_ExcNG2_Sub070] (Eterna round: R96, puzzle: Exclusion NG 2) | 260 | 209 | – | apparent KD of MS2 coat protein [1]: 170 nM
UCAUACGUUGAGGAUAUGUCAGUUAGAAUAUUUACAGAAGGCGAUACAUGAGGAUCACCCAUGUUUAUGGGCAU [Ex-6 Malc#5] (puzzle: Exclusion 6) | – | – | 173 | –
UCAUACGUUGAGGAUAUGUCAGUUAGUAUAUUUACAGAAGGCGAUACAUGAGGAUCACCCAUGUUUAUGGGCAU [Ex-6 Malc#4] (puzzle: Exclusion 6) | – | – | 225 | –
UCAUGGGAGCGAGGAUAUAGCCCAUGUGAAGAACUAGAAGGCGCAGACAUGAGGAUCACCCAUGUGUUCAUGAGGAGGUGGACA (Eterna round: R96, puzzle: Exclusion NG 1) | 215 | 83.4 | – | apparent KD of MS2 coat protein [1]: 82.5 nM
UCAUGGUAGCAGGAUAUGCUUGUUUUUUUUUUUGCAGAAGGGCUUACAUGAGGAUCACCCAUGUGUUAGGUCUA [JR_E6_Sub067] (puzzle: Exclusion 6) | – | – | 27.6 | –
UCCAGGCGAGGAUAUACAAAGAUUUUUUCGUUUUGUCUCGAACAUGAGGAUCACCCAUGUAGAAGGUGCUUCUG [JR_Ex2_Sub012] (Eterna round: R97, puzzle: Exclusion 2) | 149 | 115 | – | –
UCCGUGUCAGGAUAUGCUAGCGCAAAGUUGCCCGCGCUGUAGCAGAAGGGACAUGAGGAUCACCCAUGUCUACA [Exclusion 4 (Mod of Nando's EX4 C.10 cleaner dot)] (Eterna round: R97, puzzle: Exclusion 4) | 70.7 | 20.4 | – | –
UCCUAACAUGAGGAUCACCCAUGUGAGGAUAUGAUACUAUGUACUUCGGUACAUAGUAUCAGAAGGCACAUCCU [Ex1-3: 8] (puzzle: Exclusion 1) | – | – | 17.5 | –
UCCUCACAUGAGGAUCACCCAUGUCAGGAUAUACCCAUCCAGCGAAAUUAAAGCUGUAGUAGAAGGGACAUGCA [Raertele] (Eterna round: R97, puzzle: Exclusion 1) | 40.4 | 20.1 | – | –
UCCUGACAUGAGGAUCACCCAUGUAAGGAUAUUAAAACGACUGAACAACUCAGCGGUAUAAGAAGGUACAUGUA [EX1 A.10] (Eterna round: R97, puzzle: Exclusion 1) | 12 | 14.4 | – | –

Sequence | apparent KD of MS2 coat protein (input ligand: FMN 200 uM) [nM] | apparent KD of MS2 coat protein (input ligand: none) [nM] | apparent KD of MS2 coat protein [2] [nM] | further results
UCCUUACAUGAGGAUCACCCAUGUCAGGAUAUCUCCUCACUGCGCUUGCGCAGUGGAUAGAGAAGGGACGGGCU [JL ViennaUCT Aner mod 9] (puzzle: Exclusion 1) | – | – | 27.1 | apparent KD of MS2 coat protein [3]: 32.3 nM; apparent KD of MS2 coat protein [4]: 32.8 nM
UCCUUACAUGAGGAUCACCCAUGUCAGGAUAUCUCGGGCGGCUGAGGACCAGCCGCCCAGAGAAGGGACGAGGA [Dixeinis] (puzzle: Exclusion 1) | – | – | 23.1 | apparent KD of MS2 coat protein [3]: 38.6 nM; apparent KD of MS2 coat protein [4]: 31.3 nM
UCCUUGUUAGGAUAUUGCCUGUGGGCUAAUCUGAAUACAGGUAAGAAGGGACAUGAGGAUCACCCAUGUGACAA [Eternabot (Original) Solution 32] (Eterna round: R97, puzzle: Exclusion 4) | 39.3 | 28.8 | – | –
UCGACCGGAGGAUAUCACGUAAAGUACAUGAGGAUCACCCAUGUGUGAUGACUCGAGUCGUGAGAAGGCCGAUAUG [Larausbeer] (puzzle: Exclusion 5) | – | – | 65.8 | –
UCGAGUGCUGAGGAUAUCUGCGAGUAAAGCUCAAGAGAAGGCAGUACAUGAGGAUCACCCAUGUGGAGCCUGUG [EX6 B.27] (Eterna round: R97, puzzle: Exclusion 6) | 86.7 | 21.6 | – | –
UCGAGUGGUUAGGAUAUCAUUGGUGCAUAUCAUUGAGAAGGAACUACAUGAGGAUCACCCAUGUGGCAGUGAUA [Abezaso] (Eterna round: R96, puzzle: Exclusion 6) | 152 | 31.9 | – | apparent KD of MS2 coat protein [1]: 26.4 nM
UCGAGUGGUUAGGAUAUCAUUGGUGCAUAUCAUUGAGAAGGAACUACAUGAGGAUCACCCAUGUGGCAGUGAUA [Abezaso] (puzzle: Exclusion 6) | – | – | 23.9 | –
UCGAUGUAAGGAUAUCGUGCAAGUUUCAAAAGAGGCUUGUGCGAGAAGGUACAUGAGGAUCACCCAUGUAGGUU [Omei Ex4 B7] (Eterna round: R97, puzzle: Exclusion 4) | 207 | 75.6 | – | –
UCGCUCCGUGUAGGAUAUCGCCGUACCACUCGGCGAGAAGGACAUGAGGAUCACCCAUGUAUGUUAUUAUCACGUGUGGCGCGC [Design 52] (Eterna round: R96, puzzle: Exclusion NG 1) | 33.5 | 18.7 | – | apparent KD of MS2 coat protein [1]: 19 nM
UCGCUCCGUGUAGGAUAUCGCCGUACGAUGCGGCGAGAAGGACAUGAGGAUCACCCAUGUAUGUUAUUAUCACGCGUGGCGCAA [Design 62] (Eterna round: R96, puzzle: Exclusion NG 1) | 21.3 | 16.5 | – | apparent KD of MS2 coat protein [1]: 11.3 nM
UCGCUCCGUGUAGGAUAUCGCCGUUCUAUUCGGCGAGAAGGACAUGAGGAUCACCCAUGUAUGUUAUUAUCACGCGUGGCGCAA [Design 58] (Eterna round: R96, puzzle: Exclusion NG 1) | – | – | – | apparent KD of MS2 coat protein [1]: 12.5 nM
UCGCUGCGAGGAUAUACAUGAGGAUCACCCAUGUACGGGUCCGGGUUUGAGUUGAUGAGUAGAAGGCGCAGUGA [JL Laongeedie mod 13] (puzzle: Exclusion 3) | – | – | 79.2 | –
UCGCUGCGAGGAUAUACAUGAGGAUCACCCAUGUACGGGUCCGGGUUUUCGUCCAUUAGUAGAAGGCGCAGUGA [JL Laongeedie mod 1] (puzzle: Exclusion 3) | – | – | 136 | –
UCGCUGCGAGGAUAUACGUGCGCGCGCUCGCGUGCGCGCGUACAUGAGGAUCACCCAUGUAGAAGGCGCGCUGC [Apr-15 SS2-4] (puzzle: Exclusion 2) | – | – | 13.4 | –
UCGCUGCGAGGAUAUACGUUUGCGCGCUUUCGUUUGCGCGUACAUGAGGAUCACCCAUGUAGAAGGCGCGCCGC [Apr-15 SS2-8] (puzzle: Exclusion 2) | – | – | 13.2 | –
UCGGAUAGAGGAUAUACAUGAGGAUCACCCAUGUGGUCAAGCGGGUACGCCCAGCGAGGUAGAAGGCUAUCCGG [Eternabot (L1) Solution 16] (Eterna round: R97, puzzle: Exclusion 3) | 407 | 136 | – | –
UCGGCGCGAGGAUAUACGUUUGCGCGUUUUCGUUUUUGCGUACAUGAGGAUCACCCAUGUAGAAGGCGCGCCGC [Apr-15 SS2-16] (puzzle: Exclusion 2) | – | – | 11.4 | –
UCGGCGCGAGGAUAUGCGGCUGGUGCUUCGGGCCCUCGCGUACAUGAGGAUCACCCAUGUAGAAGGCGCGCCGC [Apr-15 SS2-43] (puzzle: Exclusion 2) | – | – | 20.5 | –
UCGGCGCGAGGAUAUGCGGCUUGUGCUUCGGGCCCUCGCGUACAUGAGGAUCACCCAUGUAGAAGGCGCGCCGC [Apr-15 SS2-44] (puzzle: Exclusion 2) | – | – | 53.8 | –
